Consider 167 variants from the RNAGym collection of RNA variant scans (doi:10.7554/elife.90254).

Sequences and labels used below:
B1: LINE1-full (parent)
chain: UACGUAGGUGGUUUUCCCCUGAUAGUGCUAAGGGGGCCUGGAAGUUUGGACUGGGCAGAGCUCAACACAGCGUGGCAAAGUGGCUGUGGCUAGACUGCCUCUCUGGAUUCCUCGUCACUCAGCAGGGCAUCUCUGAGAGAAAUGCC

In the data set the parent is B1. The experiment in a line: self-cleavage, relative activity (ratio to wild type); higher = more cleavage; in vitro, sequencing; the parent is a self-cleaving ribozyme.
Consider G48A A124G, for which the self-cleavage came to 0.92. Then U46C G106U, with 0.84; and U46C G106A, with 1.22; and U46A A129G, with 1.16. Then U45G U132A, with 0.86; and U46C A64U, with 0.55; and U45G A64G, with 0.24. Consider U47A A136U, for which the self-cleavage came to 1.48. Under U47C U119C stands 1.48; under U46C U87G, 0.55. Under U47C A141G stands 1.51; under U47G A142G, 1.33. Then U47A A92G, with 0.17; and U47A A92U, with 0.5; and U47C A117G, with 1.81. U47C A117U: the self-cleavage turned out to be 1.33. Under U47A A124G stands 0.79; under U46G U102C, 1.19; under U47C G86U, 0.13. Then U47C G86A, with 0.06; and U47A A50G, with 1.2. With U47C U85A, the self-cleavage worked out at 0.13. For U47C U85C, the self-cleavage turned out to be 0.24.

Turning to U47A A77C, the self-cleavage is 1.6. Then U47A A77U, with 1.46; and U47C G89U, with 0.04. With U47C U112A, the self-cleavage turned out to be 1.02. Then U47C U112C, with 2; and U47A U119C, with 1.53.

As to U46A U104C, the self-cleavage is 1.96. Under U46C A136G stands 1.21; under U47A U132A, 1.34. Then U47A C68U, with 0.13. Under U47A A79G stands 1.05; under U47A A79U, 1.64. As for U47C G144A, the self-cleavage was found to be 1.44. Then U47A A142G, with 1.4; and U46C A65U, with 0.24; and U46C A65G, with 0.06.

As to U46A, the self-cleavage was determined as 1.17. Under U46C stands 1.41. Under U46G stands 1.25.

Turning to U46C G97A, the self-cleavage was 0.23. Under U47C C128A stands 0.73. Then U46A A138G, with 1.66; and U47C A94G, with 0.51. Then U47A G72A, with 0.95. Regarding U46G U73C, the self-cleavage was 1.02. Take U46A G125A: the self-cleavage came to 2.

For the variant U47A U102C, the self-cleavage amounted to 1.19. Under U47A U102A stands 1.35; under U46G A67G, 0.32; under U47G U73A, 1.18. Then U46A U87A, with 0.03. Under U47A A138G stands 1.39. In the case of U46A C51U, the self-cleavage is 1.35. Then U46A U134G, with 0.84; and U46A U134A, with 0.77; and U47A U52C, with 1.37. Under U47C C95A stands 0.09; under U46C G144A, 2.24.

Take U47C C90G: the self-cleavage was 0.04. Then U46A U143A, with 1.38; and U47C C84A, with 0.15. Under U47A G137U stands 1.36; under U47A A64U, 0.44; under U47A A64C, 0.25. Under U46C C113U stands 1.53; under U46G G89A, 0.04.

As for U45G U102A, the self-cleavage amounted to 1.73.

As for U47A A69U, the self-cleavage came out at 0.04. Then U46C A124G, with 1.54; and U46C A124U, with 1.25.

Regarding U47A C111A, the self-cleavage was found to be 1.18. On to U46G A107G, for which the self-cleavage was 1.15.

As for U47G U102A, the self-cleavage was 1.34. Then U46C G80A, with 2.95; and U46A U132A, with 1.09; and U45C U134C, with 1.47.

In the case of U45C U134G, the self-cleavage was 1.22. Then U45C U134A, with 1.6; and U47A A94U, with 0.18. Under U47G A59U stands 1; under U47A U81C, 1.57; under U46C A92G, 0.29.

As to U46A A64G, the self-cleavage was determined as 0.18. Then U46A A64U, with 0.46; and U47C G82A, with 2.09; and U46A U100C, with 1.75. Under U47C U91A stands 0.97; under U46A A142U, 1.19.

In the case of U47A A59G, the self-cleavage is 0.05. Under U47G C111U stands 1.62; under U47A A78U, 2.04; under U47A A78G, 0.29. Under U47C G53U stands 1.3. As for U47A C76U, the self-cleavage came out at 1.83. As to U46A A65G, the self-cleavage came out at 0.02. Then U47C U134C, with 1.74. Under U47C G97A stands 0.59. Then U47C G97C, with 1.3; and U47A U96C, with 0.13. Regarding U46C G53A, the self-cleavage is 1.54. Then U47A U143C, with 1.39; and U46A U96A, with 0.05; and U47G A129G, with 1.31. Under U46A C145U stands 1.52; under U46C U100A, 1.22. Turning to U46A A121G, the self-cleavage was 1.15.

Take U46C A140U: the self-cleavage turned out to be 1.46. Under U46C A140G stands 1.41; under U46C C71G, 0.96; under U46C C71U, 1.11.

On to U46C A78G, for which the self-cleavage turned out to be 1.62. Then U46C A78C, with 1.9.

As to U45G C113U, the self-cleavage worked out at 0.88. Consider U45G U81A, for which the self-cleavage was determined as 1.82. For U46A A59G, the self-cleavage stood at 0.07. Turning to G48A A92G, the self-cleavage stood at 0.09.

With U46G A136G, the self-cleavage was determined as 1.96. Consider U46G A136U, for which the self-cleavage was determined as 1.34. In the case of U47C A129U, the self-cleavage was 1.74.

U46C C95U: the self-cleavage came out at 0.23.

On to U46A U52A, for which the self-cleavage is 1.87. As for U47G A69G, the self-cleavage was determined as 0.67. Then G48A A78G, with 1.21. Then U47C A50U, with 1.5; and U47G U109C, with 2.63. Then U47C U104G, with 1.2; and U47C U104A, with 1.23. As for U47C U104C, the self-cleavage was found to be 2.24. Under U47A U134C stands 1.39.

Regarding U46C G48A, the self-cleavage is 1.04. Then U47C A138G, with 1.53; and U47A A57C, with 0.06. Then U47A A57U, with 0.08; and U47G U100A, with 0.42; and U47C C76U, with 1.77. Then U47A U115A, with 1.05; and U47A U115C, with 1.39; and U46C A67C, with 0.05.

With U47C A124C, the self-cleavage is 1.31. Under U47C A124U stands 1.68; under U47C A124G, 1.59. In the case of U47A U108C, the self-cleavage came to 1.22.

In the case of U47C A77C, the self-cleavage amounted to 0.34.

Consider U47C A65U, for which the self-cleavage is 0.1. Under U46C G139A stands 1.23; under U46A U115A, 1.26; under U46A U115C, 1.72. In the case of U46C U104A, the self-cleavage amounted to 1.11. Then U46G U87C, with 0; and U47G A65G, with 0.1. Under U47C U102C stands 1.9; under U47A A121U, 1.04; under U47A A121G, 1.39.

As for U47C G55A, the self-cleavage was determined as 0.65. Turning to U47C C71A, the self-cleavage was 0.68. In the case of U47C A57G, the self-cleavage stood at 1.54. Under U45G U108C stands 1.91; under U47G U130A, 1.23; under U46C U73A, 1.68. Then U46C U73C, with 2.17. Then U47C A136G, with 0.99; and U47A C110U, with 0.95; and G48A A57G, with 0.6. For the variant U46G U62C, the self-cleavage is 0.
